Tests used:
Test in all cases: cell_activity; human T cells, 1 ug mRNA, day 3
Conditions in all cases: tags: N-terminal SV40 NLS
B2M 13-14x.281 = target: T1, B2M 13-14x.281 (Artificial Sequence)
T1 chain: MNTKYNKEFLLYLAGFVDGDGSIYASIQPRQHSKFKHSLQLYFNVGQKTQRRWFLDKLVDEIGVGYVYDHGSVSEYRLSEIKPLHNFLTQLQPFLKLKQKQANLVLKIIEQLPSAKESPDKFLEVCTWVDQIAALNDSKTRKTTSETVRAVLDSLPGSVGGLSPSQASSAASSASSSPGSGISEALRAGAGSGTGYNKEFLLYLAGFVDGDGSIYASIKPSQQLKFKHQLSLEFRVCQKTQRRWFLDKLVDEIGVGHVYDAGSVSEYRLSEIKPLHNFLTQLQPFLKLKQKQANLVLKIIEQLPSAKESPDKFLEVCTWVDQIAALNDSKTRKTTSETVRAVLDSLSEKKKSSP
Procedure: (§1) Donor human T cells were stimulated with anti-CD3 and anti-CD28 antibodies for 3 days, then electroporated with mRNA encoding a given B2M 13-14 meganuclease (1 μg) using the Amaxa 4D-Nucleofector (Lonza) according to the manufacturer's instructions. To look for the loss of B2M surface expression, cells were stained with an antibody recognizing β-2 microglobulin (BD Biosciences) as well as an antibody recognizing CD3 (BioLegend), a marker of T cells.

B2M 13-14x.551 = target: T2, B2M 13-14x.551 (Artificial Sequence)
T2 chain: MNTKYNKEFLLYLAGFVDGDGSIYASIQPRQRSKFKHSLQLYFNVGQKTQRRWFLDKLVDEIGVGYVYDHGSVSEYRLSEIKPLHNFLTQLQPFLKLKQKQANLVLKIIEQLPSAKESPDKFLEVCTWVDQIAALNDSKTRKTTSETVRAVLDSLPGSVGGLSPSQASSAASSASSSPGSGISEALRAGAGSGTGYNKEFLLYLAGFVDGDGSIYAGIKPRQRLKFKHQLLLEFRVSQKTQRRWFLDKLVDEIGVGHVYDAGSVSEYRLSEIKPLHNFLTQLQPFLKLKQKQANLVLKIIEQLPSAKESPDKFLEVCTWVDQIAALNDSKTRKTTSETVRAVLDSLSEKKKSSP
Procedure: as §1

B2M 13-14x.283 = target: T3, B2M 13-14x.283 (Artificial Sequence)
T3 chain: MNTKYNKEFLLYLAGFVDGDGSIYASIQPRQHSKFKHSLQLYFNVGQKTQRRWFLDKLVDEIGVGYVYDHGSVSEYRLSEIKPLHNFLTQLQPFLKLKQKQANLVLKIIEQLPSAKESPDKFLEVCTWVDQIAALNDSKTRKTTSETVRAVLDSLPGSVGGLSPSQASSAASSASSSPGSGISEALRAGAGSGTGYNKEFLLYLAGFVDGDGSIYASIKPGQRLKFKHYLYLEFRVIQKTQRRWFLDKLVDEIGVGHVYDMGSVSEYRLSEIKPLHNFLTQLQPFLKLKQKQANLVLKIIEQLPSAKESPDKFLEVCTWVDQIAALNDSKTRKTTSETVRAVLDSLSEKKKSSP
Procedure: as §1

B2M 13-14x.377 = target: T4, B2M 13-14x.377 (Artificial Sequence)
T4 chain: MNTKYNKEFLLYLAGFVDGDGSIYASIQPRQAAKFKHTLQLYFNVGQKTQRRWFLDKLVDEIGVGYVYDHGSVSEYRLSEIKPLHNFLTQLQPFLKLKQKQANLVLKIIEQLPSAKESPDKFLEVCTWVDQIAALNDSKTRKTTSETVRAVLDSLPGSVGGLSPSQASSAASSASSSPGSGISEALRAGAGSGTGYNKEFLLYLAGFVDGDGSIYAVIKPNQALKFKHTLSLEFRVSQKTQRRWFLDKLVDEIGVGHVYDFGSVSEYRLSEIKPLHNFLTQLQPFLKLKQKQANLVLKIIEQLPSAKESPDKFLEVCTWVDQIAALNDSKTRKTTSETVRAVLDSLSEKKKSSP
Procedure: as §1

B2M 13-14x.365 = target: T5, B2M 13-14x.365 (Artificial Sequence)
T5 chain: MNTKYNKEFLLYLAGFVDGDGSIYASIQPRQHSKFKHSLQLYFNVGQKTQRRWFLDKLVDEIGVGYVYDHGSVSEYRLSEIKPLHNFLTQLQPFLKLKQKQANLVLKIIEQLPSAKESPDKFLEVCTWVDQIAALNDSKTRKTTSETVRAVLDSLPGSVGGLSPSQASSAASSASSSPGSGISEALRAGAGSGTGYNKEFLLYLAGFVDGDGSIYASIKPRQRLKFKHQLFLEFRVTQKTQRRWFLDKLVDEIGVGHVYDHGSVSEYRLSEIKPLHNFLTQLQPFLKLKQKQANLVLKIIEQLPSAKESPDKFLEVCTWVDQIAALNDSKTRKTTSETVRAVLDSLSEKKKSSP
Procedure: as §1

B2M 13-14x.378 = target: T6, B2M 13-14x.378 (Artificial Sequence)
T6 chain: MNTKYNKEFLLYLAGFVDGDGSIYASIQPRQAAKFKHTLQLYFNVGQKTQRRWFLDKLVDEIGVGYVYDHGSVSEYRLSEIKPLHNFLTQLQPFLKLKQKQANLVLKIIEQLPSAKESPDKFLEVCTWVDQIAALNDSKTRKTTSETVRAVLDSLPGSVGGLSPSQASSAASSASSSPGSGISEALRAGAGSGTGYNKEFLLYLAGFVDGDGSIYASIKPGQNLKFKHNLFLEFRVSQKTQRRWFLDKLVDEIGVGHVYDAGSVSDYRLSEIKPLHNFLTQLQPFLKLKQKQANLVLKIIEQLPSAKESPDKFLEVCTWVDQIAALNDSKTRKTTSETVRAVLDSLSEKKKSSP
Procedure: as §1

B2M 13-14x.338 = target: T7, B2M 13-14x.338 (Artificial Sequence)
T7 chain: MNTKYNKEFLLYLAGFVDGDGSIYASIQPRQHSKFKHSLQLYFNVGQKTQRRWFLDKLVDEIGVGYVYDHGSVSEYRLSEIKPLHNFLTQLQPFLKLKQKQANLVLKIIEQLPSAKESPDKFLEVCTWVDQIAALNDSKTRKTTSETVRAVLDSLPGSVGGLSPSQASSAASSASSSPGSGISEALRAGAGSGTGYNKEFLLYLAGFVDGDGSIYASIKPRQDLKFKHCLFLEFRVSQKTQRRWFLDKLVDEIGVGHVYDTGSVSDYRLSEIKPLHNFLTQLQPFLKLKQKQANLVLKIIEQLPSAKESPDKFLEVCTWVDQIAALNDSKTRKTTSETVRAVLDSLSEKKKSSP
Procedure: as §1

B1: B2M 13-14 recognition sequence (dsDNA)
DNA 1: CTATCTCTTGTACTACACTGAA
DNA 2: TTCAGTGTAGTACAAGAGATAG
B2M 13-14x.281
  activity: 53.6 % B2M-negative
B2M 13-14x.551
  activity: 40.3 % B2M-negative
B2M 13-14x.283
  activity: 49.3 % B2M-negative
B2M 13-14x.377
  activity: 75.9 % B2M-negative
B2M 13-14x.365
  activity: 27.4 % B2M-negative
B2M 13-14x.378
  activity: 3.54 % B2M-negative
B2M 13-14x.338
  activity: 4.68 % B2M-negative

Reference: patent US20210032664, “ENGINEERED MEGANUCLEASES WITH RECOGNITION SEQUENCES FOUND IN THE HUMAN BETA-2 MICROGLOBULIN GENE” (Precision Biosciences, Inc., published 2021)
